Test results from PMC5906591.

Biological target: HigA2Ab-His antitoxin (C-terminal His-tag fusion, from pET-HigBA-His) (Acinetobacter baumannii)
Assay: SEC

Work on “HigB2Ab toxin, untagged (co-expressed from pET-HigBA-His or pET-HigB-His6-TEV-HigA)” yielded a stoichiometry N (toxin:antitoxin) of 1.
